Reference: paper PMC8631079

Key:
[1] = target: GH10 (1) from PUL15 of Prevotella copri DSM18205 (extracellular endo-1,4-β-xylanase) (Prevotella copri DSM 18205); assay: SEC; HiPrep 16/60 Sephacryl S-300 HR column, 0.5 mL/min, sodium phosphate 50 mM, NaCl 150 mM, pH 7.0; calibrated with molecular weight standards 20-700 kDa; native mass compared with the theoretical mass
[2] = target: GH43_1 from PUL15 of Prevotella copri DSM18205 (intracellular β-xylosidase / exo-β-xylanase) (Prevotella copri DSM 18205); assay: as above

stoichiometry N [1] | stoichiometry N [2] | Substance
2 |  | GH10 (1) from PUL15 of Prevotella copri DSM18205 (extracellular endo-1,4-β-xylanase) (enzyme)
 | 2 | GH43_1 from PUL15 of Prevotella copri DSM18205 (intracellular β-xylosidase / exo-β-xylanase) (enzyme)
